# Measurements: patent publication US20220119513A1 (ZOETIS SERVICES, published 2022)
# Target: T1, TGFβ1 (R&D Systems)
# T1 construct: also called TGFB1
# Experiment: single point SPR
# T1 sequence (P01137 279-390): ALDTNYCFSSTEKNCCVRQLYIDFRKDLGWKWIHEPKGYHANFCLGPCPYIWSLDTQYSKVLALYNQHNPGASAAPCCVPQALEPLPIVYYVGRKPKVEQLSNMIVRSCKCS
row,Binder,Kd
1,"Can-SL501-VH3 D108E / Can-SL501-VL2 (antibody, V domains shown) VH: EVQLVESGGDLVKPGGSLRLSCVASGFTFSSYGMHWVRQAPGKELEWVAVISYDGSIKYYADAVKGRFTISRDNAKNTLYLQMNSLRAEDTAVYYCARTGEYSGYDTEPQYSWGQGTTVTVSS VL: EIVMTQSPGSLAGSAGESVSINCRASQGIGDDLGWYQQKPGERPKLLIYGTSTLQSGVPARFSSSGSGTDFTLTINNLQAEDVGDYYCLQDSNYPLTFGAGTK",0.341 nM
2,"Can-SL501-VH3 Y111W / Can-SL501-VL2 (antibody, V domains shown) VH: EVQLVESGGDLVKPGGSLRLSCVASGFTFSSYGMHWVRQAPGKELEWVAVISYDGSIKYYADAVKGRFTISRDNAKNTLYLQMNSLRAEDTAVYYCARTGEYSGYDTDPQWSWGQGTTVTVSS VL: EIVMTQSPGSLAGSAGESVSINCRASQGIGDDLGWYQQKPGERPKLLIYGTSTLQSGVPARFSSSGSGTDFTLTINNLQAEDVGDYYCLQDSNYPLTFGAGTK",13.9 nM
3,"Can-SL501-VH3 Q110V / Can-SL501-VL2 (antibody, V domains shown) VH: EVQLVESGGDLVKPGGSLRLSCVASGFTFSSYGMHWVRQAPGKELEWVAVISYDGSIKYYADAVKGRFTISRDNAKNTLYLQMNSLRAEDTAVYYCARTGEYSGYDTDPVYSWGQGTTVTVSS VL: EIVMTQSPGSLAGSAGESVSINCRASQGIGDDLGWYQQKPGERPKLLIYGTSTLQSGVPARFSSSGSGTDFTLTINNLQAEDVGDYYCLQDSNYPLTFGAGTK",7.37 nM
4,"Can-SL501-VH3 Q110R / Can-SL501-VL2 (antibody, V domains shown) VH: EVQLVESGGDLVKPGGSLRLSCVASGFTFSSYGMHWVRQAPGKELEWVAVISYDGSIKYYADAVKGRFTISRDNAKNTLYLQMNSLRAEDTAVYYCARTGEYSGYDTDPRYSWGQGTTVTVSS VL: EIVMTQSPGSLAGSAGESVSINCRASQGIGDDLGWYQQKPGERPKLLIYGTSTLQSGVPARFSSSGSGTDFTLTINNLQAEDVGDYYCLQDSNYPLTFGAGTK",8.38 nM
5,"Can-SL501-VH3 P109H / Can-SL501-VL2 (antibody, V domains shown) VH: EVQLVESGGDLVKPGGSLRLSCVASGFTFSSYGMHWVRQAPGKELEWVAVISYDGSIKYYADAVKGRFTISRDNAKNTLYLQMNSLRAEDTAVYYCARTGEYSGYDTDHQYSWGQGTTVTVSS VL: EIVMTQSPGSLAGSAGESVSINCRASQGIGDDLGWYQQKPGERPKLLIYGTSTLQSGVPARFSSSGSGTDFTLTINNLQAEDVGDYYCLQDSNYPLTFGAGTK",1.35 nM
6,"Can-SL501-VH3 Y111P / Can-SL501-VL2 (antibody, V domains shown) VH: EVQLVESGGDLVKPGGSLRLSCVASGFTFSSYGMHWVRQAPGKELEWVAVISYDGSIKYYADAVKGRFTISRDNAKNTLYLQMNSLRAEDTAVYYCARTGEYSGYDTDPQPSWGQGTTVTVSS VL: EIVMTQSPGSLAGSAGESVSINCRASQGIGDDLGWYQQKPGERPKLLIYGTSTLQSGVPARFSSSGSGTDFTLTINNLQAEDVGDYYCLQDSNYPLTFGAGTK",7.46 nM
7,"Can-SL501-VH3 Q110H / Can-SL501-VL2 (antibody, V domains shown) VH: EVQLVESGGDLVKPGGSLRLSCVASGFTFSSYGMHWVRQAPGKELEWVAVISYDGSIKYYADAVKGRFTISRDNAKNTLYLQMNSLRAEDTAVYYCARTGEYSGYDTDPHYSWGQGTTVTVSS VL: EIVMTQSPGSLAGSAGESVSINCRASQGIGDDLGWYQQKPGERPKLLIYGTSTLQSGVPARFSSSGSGTDFTLTINNLQAEDVGDYYCLQDSNYPLTFGAGTK",5.76 nM
8,"Can-SL501-VH3 Y111H / Can-SL501-VL2 (antibody, V domains shown) VH: EVQLVESGGDLVKPGGSLRLSCVASGFTFSSYGMHWVRQAPGKELEWVAVISYDGSIKYYADAVKGRFTISRDNAKNTLYLQMNSLRAEDTAVYYCARTGEYSGYDTDPQHSWGQGTTVTVSS VL: EIVMTQSPGSLAGSAGESVSINCRASQGIGDDLGWYQQKPGERPKLLIYGTSTLQSGVPARFSSSGSGTDFTLTINNLQAEDVGDYYCLQDSNYPLTFGAGTK",4.5 nM
9,"Can-SL501-VH3 D108Q / Can-SL501-VL2 (antibody, V domains shown) VH: EVQLVESGGDLVKPGGSLRLSCVASGFTFSSYGMHWVRQAPGKELEWVAVISYDGSIKYYADAVKGRFTISRDNAKNTLYLQMNSLRAEDTAVYYCARTGEYSGYDTQPQYSWGQGTTVTVSS VL: EIVMTQSPGSLAGSAGESVSINCRASQGIGDDLGWYQQKPGERPKLLIYGTSTLQSGVPARFSSSGSGTDFTLTINNLQAEDVGDYYCLQDSNYPLTFGAGTK",1.25 nM
10,"Can-SL501-VH3 P109G / Can-SL501-VL2 (antibody, V domains shown) VH: EVQLVESGGDLVKPGGSLRLSCVASGFTFSSYGMHWVRQAPGKELEWVAVISYDGSIKYYADAVKGRFTISRDNAKNTLYLQMNSLRAEDTAVYYCARTGEYSGYDTDGQYSWGQGTTVTVSS VL: EIVMTQSPGSLAGSAGESVSINCRASQGIGDDLGWYQQKPGERPKLLIYGTSTLQSGVPARFSSSGSGTDFTLTINNLQAEDVGDYYCLQDSNYPLTFGAGTK",1.59 nM
11,"Can-SL501-VH3 D108N / Can-SL501-VL2 (antibody, V domains shown) VH: EVQLVESGGDLVKPGGSLRLSCVASGFTFSSYGMHWVRQAPGKELEWVAVISYDGSIKYYADAVKGRFTISRDNAKNTLYLQMNSLRAEDTAVYYCARTGEYSGYDTNPQYSWGQGTTVTVSS VL: EIVMTQSPGSLAGSAGESVSINCRASQGIGDDLGWYQQKPGERPKLLIYGTSTLQSGVPARFSSSGSGTDFTLTINNLQAEDVGDYYCLQDSNYPLTFGAGTK",9.68 nM
12,"Can-SL501-VH3 P109F / Can-SL501-VL2 (antibody, V domains shown) VH: EVQLVESGGDLVKPGGSLRLSCVASGFTFSSYGMHWVRQAPGKELEWVAVISYDGSIKYYADAVKGRFTISRDNAKNTLYLQMNSLRAEDTAVYYCARTGEYSGYDTDFQYSWGQGTTVTVSS VL: EIVMTQSPGSLAGSAGESVSINCRASQGIGDDLGWYQQKPGERPKLLIYGTSTLQSGVPARFSSSGSGTDFTLTINNLQAEDVGDYYCLQDSNYPLTFGAGTK",0.534 nM
13,"Can-SL501-VH3 P109W / Can-SL501-VL2 (antibody, V domains shown) VH: EVQLVESGGDLVKPGGSLRLSCVASGFTFSSYGMHWVRQAPGKELEWVAVISYDGSIKYYADAVKGRFTISRDNAKNTLYLQMNSLRAEDTAVYYCARTGEYSGYDTDWQYSWGQGTTVTVSS VL: EIVMTQSPGSLAGSAGESVSINCRASQGIGDDLGWYQQKPGERPKLLIYGTSTLQSGVPARFSSSGSGTDFTLTINNLQAEDVGDYYCLQDSNYPLTFGAGTK",6.9 nM
14,"Can-SL501-VH3 Q110T / Can-SL501-VL2 (antibody, V domains shown) VH: EVQLVESGGDLVKPGGSLRLSCVASGFTFSSYGMHWVRQAPGKELEWVAVISYDGSIKYYADAVKGRFTISRDNAKNTLYLQMNSLRAEDTAVYYCARTGEYSGYDTDPTYSWGQGTTVTVSS VL: EIVMTQSPGSLAGSAGESVSINCRASQGIGDDLGWYQQKPGERPKLLIYGTSTLQSGVPARFSSSGSGTDFTLTINNLQAEDVGDYYCLQDSNYPLTFGAGTK",5.61 nM

# The remaining binders from weak to strong by Kd, led by results:
row,Kd,Binder
1,8.4 nM,"Can-SL501-VH3 P109Y / Can-SL501-VL2 (antibody, V domains shown) VH: EVQLVESGGDLVKPGGSLRLSCVASGFTFSSYGMHWVRQAPGKELEWVAVISYDGSIKYYADAVKGRFTISRDNAKNTLYLQMNSLRAEDTAVYYCARTGEYSGYDTDYQYSWGQGTTVTVSS VL: EIVMTQSPGSLAGSAGESVSINCRASQGIGDDLGWYQQKPGERPKLLIYGTSTLQSGVPARFSSSGSGTDFTLTINNLQAEDVGDYYCLQDSNYPLTFGAGTK"
2,6.4 nM,"Can-SL501-VH3 Q110S / Can-SL501-VL2 (antibody, V domains shown) VH: EVQLVESGGDLVKPGGSLRLSCVASGFTFSSYGMHWVRQAPGKELEWVAVISYDGSIKYYADAVKGRFTISRDNAKNTLYLQMNSLRAEDTAVYYCARTGEYSGYDTDPSYSWGQGTTVTVSS VL: EIVMTQSPGSLAGSAGESVSINCRASQGIGDDLGWYQQKPGERPKLLIYGTSTLQSGVPARFSSSGSGTDFTLTINNLQAEDVGDYYCLQDSNYPLTFGAGTK"
3,4.97 nM,"Can-SL501-VH3 P109S / Can-SL501-VL2 (antibody, V domains shown) VH: EVQLVESGGDLVKPGGSLRLSCVASGFTFSSYGMHWVRQAPGKELEWVAVISYDGSIKYYADAVKGRFTISRDNAKNTLYLQMNSLRAEDTAVYYCARTGEYSGYDTDSQYSWGQGTTVTVSS VL: EIVMTQSPGSLAGSAGESVSINCRASQGIGDDLGWYQQKPGERPKLLIYGTSTLQSGVPARFSSSGSGTDFTLTINNLQAEDVGDYYCLQDSNYPLTFGAGTK"
4,3.51 nM,"Can-SL501-VH3 D108P / Can-SL501-VL2 (antibody, V domains shown) VH: EVQLVESGGDLVKPGGSLRLSCVASGFTFSSYGMHWVRQAPGKELEWVAVISYDGSIKYYADAVKGRFTISRDNAKNTLYLQMNSLRAEDTAVYYCARTGEYSGYDTPPQYSWGQGTTVTVSS VL: EIVMTQSPGSLAGSAGESVSINCRASQGIGDDLGWYQQKPGERPKLLIYGTSTLQSGVPARFSSSGSGTDFTLTINNLQAEDVGDYYCLQDSNYPLTFGAGTK"
5,1.83 nM,"Can-SL501-VH3 D108H / Can-SL501-VL2 (antibody, V domains shown) VH: EVQLVESGGDLVKPGGSLRLSCVASGFTFSSYGMHWVRQAPGKELEWVAVISYDGSIKYYADAVKGRFTISRDNAKNTLYLQMNSLRAEDTAVYYCARTGEYSGYDTHPQYSWGQGTTVTVSS VL: EIVMTQSPGSLAGSAGESVSINCRASQGIGDDLGWYQQKPGERPKLLIYGTSTLQSGVPARFSSSGSGTDFTLTINNLQAEDVGDYYCLQDSNYPLTFGAGTK"
6,1.17 nM,"Can-SL501-VH3 Y111M / Can-SL501-VL2 (antibody, V domains shown) VH: EVQLVESGGDLVKPGGSLRLSCVASGFTFSSYGMHWVRQAPGKELEWVAVISYDGSIKYYADAVKGRFTISRDNAKNTLYLQMNSLRAEDTAVYYCARTGEYSGYDTDPQMSWGQGTTVTVSS VL: EIVMTQSPGSLAGSAGESVSINCRASQGIGDDLGWYQQKPGERPKLLIYGTSTLQSGVPARFSSSGSGTDFTLTINNLQAEDVGDYYCLQDSNYPLTFGAGTK"
7,0.798 nM,"Can-SL501-VH3 D108T / Can-SL501-VL2 (antibody, V domains shown) VH: EVQLVESGGDLVKPGGSLRLSCVASGFTFSSYGMHWVRQAPGKELEWVAVISYDGSIKYYADAVKGRFTISRDNAKNTLYLQMNSLRAEDTAVYYCARTGEYSGYDTTPQYSWGQGTTVTVSS VL: EIVMTQSPGSLAGSAGESVSINCRASQGIGDDLGWYQQKPGERPKLLIYGTSTLQSGVPARFSSSGSGTDFTLTINNLQAEDVGDYYCLQDSNYPLTFGAGTK"
8,0.724 nM,"Can-SL501-VH3 D108S / Can-SL501-VL2 (antibody, V domains shown) VH: EVQLVESGGDLVKPGGSLRLSCVASGFTFSSYGMHWVRQAPGKELEWVAVISYDGSIKYYADAVKGRFTISRDNAKNTLYLQMNSLRAEDTAVYYCARTGEYSGYDTSPQYSWGQGTTVTVSS VL: EIVMTQSPGSLAGSAGESVSINCRASQGIGDDLGWYQQKPGERPKLLIYGTSTLQSGVPARFSSSGSGTDFTLTINNLQAEDVGDYYCLQDSNYPLTFGAGTK"
